Measurements taken from US20090155176A1.

Target: LFA-1 (lymphocyte function-associated antigen-1), purified heterodimer captured on ELISA plates (human) (UniProt P20701)
Experiment: competition ELISA (LFA-1/ICAM-1-Ig)
Details: ligand

Sequence of sICAM-1 (soluble ICAM-1) (P05362 28-480): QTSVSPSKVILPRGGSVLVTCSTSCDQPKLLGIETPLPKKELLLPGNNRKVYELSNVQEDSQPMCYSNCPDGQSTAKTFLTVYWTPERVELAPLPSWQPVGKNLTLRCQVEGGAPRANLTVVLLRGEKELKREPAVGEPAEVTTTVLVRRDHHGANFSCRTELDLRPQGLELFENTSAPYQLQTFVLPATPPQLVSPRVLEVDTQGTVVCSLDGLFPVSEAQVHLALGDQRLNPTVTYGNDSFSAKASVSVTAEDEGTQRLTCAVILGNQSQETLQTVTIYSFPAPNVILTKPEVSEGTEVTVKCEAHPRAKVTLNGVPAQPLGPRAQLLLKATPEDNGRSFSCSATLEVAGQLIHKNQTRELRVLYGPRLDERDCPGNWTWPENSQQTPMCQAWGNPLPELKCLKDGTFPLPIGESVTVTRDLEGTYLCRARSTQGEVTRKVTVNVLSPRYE
Sequence of LFA-1 (lymphocyte function-associated antigen-1), purified heterodimer captured on ELISA plates (human) (P20701 26-1170, chain 1 of 2): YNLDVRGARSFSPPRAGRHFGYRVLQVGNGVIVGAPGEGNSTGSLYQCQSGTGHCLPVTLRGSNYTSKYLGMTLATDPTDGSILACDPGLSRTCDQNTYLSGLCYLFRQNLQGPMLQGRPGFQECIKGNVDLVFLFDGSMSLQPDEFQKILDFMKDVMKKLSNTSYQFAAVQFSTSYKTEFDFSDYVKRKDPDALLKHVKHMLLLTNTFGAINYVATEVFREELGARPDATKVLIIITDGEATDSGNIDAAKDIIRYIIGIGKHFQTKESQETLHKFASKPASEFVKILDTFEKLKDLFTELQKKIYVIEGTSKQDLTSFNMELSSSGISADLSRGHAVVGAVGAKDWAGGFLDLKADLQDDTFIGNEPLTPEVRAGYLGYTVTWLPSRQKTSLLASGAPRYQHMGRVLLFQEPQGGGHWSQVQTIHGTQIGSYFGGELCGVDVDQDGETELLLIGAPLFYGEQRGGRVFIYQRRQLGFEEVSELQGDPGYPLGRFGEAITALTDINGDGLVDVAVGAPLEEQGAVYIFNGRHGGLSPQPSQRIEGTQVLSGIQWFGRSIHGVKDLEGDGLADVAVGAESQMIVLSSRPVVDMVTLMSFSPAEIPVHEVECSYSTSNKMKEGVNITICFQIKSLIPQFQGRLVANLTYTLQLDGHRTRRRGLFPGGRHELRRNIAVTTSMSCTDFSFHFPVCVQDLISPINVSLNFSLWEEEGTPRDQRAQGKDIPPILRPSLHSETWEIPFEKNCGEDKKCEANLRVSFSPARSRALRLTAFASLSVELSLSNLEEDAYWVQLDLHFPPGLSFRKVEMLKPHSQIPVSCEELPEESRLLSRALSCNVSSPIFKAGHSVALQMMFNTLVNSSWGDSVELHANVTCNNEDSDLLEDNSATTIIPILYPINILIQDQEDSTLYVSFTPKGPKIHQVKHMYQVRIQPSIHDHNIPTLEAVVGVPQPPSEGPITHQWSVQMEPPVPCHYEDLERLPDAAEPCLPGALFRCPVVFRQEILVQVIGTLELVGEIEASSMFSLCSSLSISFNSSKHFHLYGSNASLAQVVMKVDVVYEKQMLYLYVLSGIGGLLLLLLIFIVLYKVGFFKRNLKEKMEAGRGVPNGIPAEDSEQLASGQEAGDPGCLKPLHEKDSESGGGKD
Sequence of LFA-1 (lymphocyte function-associated antigen-1), purified heterodimer captured on ELISA plates (human) (P05107 23-769, chain 2 of 2, further chain): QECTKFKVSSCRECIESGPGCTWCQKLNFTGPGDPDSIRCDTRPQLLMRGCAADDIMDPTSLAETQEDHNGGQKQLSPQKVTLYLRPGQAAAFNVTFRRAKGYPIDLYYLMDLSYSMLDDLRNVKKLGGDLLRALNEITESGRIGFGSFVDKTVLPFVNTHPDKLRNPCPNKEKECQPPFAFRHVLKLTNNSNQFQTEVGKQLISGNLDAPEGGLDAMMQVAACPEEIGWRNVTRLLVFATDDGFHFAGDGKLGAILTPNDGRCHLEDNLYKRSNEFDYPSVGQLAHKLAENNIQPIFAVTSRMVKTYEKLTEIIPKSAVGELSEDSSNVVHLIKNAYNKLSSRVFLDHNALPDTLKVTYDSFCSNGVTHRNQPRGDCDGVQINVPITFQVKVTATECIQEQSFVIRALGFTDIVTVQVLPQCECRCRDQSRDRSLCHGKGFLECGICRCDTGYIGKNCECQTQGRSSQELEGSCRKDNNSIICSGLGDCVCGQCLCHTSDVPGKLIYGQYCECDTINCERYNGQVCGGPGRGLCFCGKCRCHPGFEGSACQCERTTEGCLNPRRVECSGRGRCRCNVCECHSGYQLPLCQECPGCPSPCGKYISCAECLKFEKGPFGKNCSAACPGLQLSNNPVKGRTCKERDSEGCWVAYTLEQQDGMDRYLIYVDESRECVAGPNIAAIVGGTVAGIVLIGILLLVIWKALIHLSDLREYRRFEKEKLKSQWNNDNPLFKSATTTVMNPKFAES

IC50: 290 nM
Substance: sICAM-1 (soluble ICAM-1) (from UniProt P05362 28-480)
